Measured values as given in patent US20260209316A1.
Read-outs that look alike come from different tables or passages of the source.

Tests used:
[1] = molecular target: thermolysin-cleaved SUDV GP (GP(S)THL) (Sudan virus (SUDV)) (UniProt Q7T9D9); assay: BLI; Sudan GPTHL on sensor, NPC1-dC, then NPC1-dC (self-competition)
[2] = molecular target: thermolysin-cleaved SUDV GP (GP(S)THL) (Sudan virus (SUDV)) (UniProt Q7T9D9); assay: as above; remark: listed apart in the source

Sequence of Niemann-Pick disease, type C1-domain C (NPC1-dC) (O15118 373-620 limits assumed): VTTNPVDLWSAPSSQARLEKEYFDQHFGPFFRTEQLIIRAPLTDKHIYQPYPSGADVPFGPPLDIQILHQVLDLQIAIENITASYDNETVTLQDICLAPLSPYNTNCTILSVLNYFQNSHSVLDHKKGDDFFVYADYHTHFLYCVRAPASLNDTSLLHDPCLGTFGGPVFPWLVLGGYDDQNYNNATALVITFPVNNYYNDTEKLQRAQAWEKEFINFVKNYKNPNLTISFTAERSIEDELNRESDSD

## Niemann-Pick disease, type C1-domain C (NPC1-dC) (from UniProt O15118 373-620) (receptor)
[1]
  percent blocking of NPC1-dC binding: 79%
[2]
  percent blocking of NPC1-dC binding: 72%
